Assay results from publication doi:10.1101/2022.06.13.496020 (bioRxiv, 2022).

Target: TSH β-subunit (human, UniProt P01222 21-132, N-linked glycan (one))
Test: cryo-EM structure

TSH β-subunit, sequence (P01222 21-132): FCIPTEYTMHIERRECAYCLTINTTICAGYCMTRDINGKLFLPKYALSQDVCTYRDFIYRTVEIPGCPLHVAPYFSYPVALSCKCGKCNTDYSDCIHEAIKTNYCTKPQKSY

binding result: binds
B1: TSH α-subunit (natural protein)
chain: not shown
modifications: N-linked glycans (two, one at N52)
